Numbered stars: 1 amine (or outer) side, 2 acyl side, 3 side chain; on linkers, the order of the positions; unused ones are H or OH. Bridge positions count the residues as written; N and C are the ends. Side chains are listed from the residue outwards. Ends that are not written are not given here. * marks the point of attachment. C20 diacid = O=C(O)CCCCCCCCCCCCCCCCCCC(=O)*; γGlu = O=C(O)[C@H](CCC(=O)[*:2])N[*:1]
B1: N^ε1-[(4S)-4-carboxy-4-(19-carboxynonadecanoylamino)butanoyl]-[Arg17,Pro21,Pro27,His34]-h-amylin (peptide)
peptide: K([γGlu-C20 diacid])CNTATCATQRLANFLRHSSPNFGAIPSSTNVGHNTY-NH2
modifications: disulfide 2-7; N-terminus assumed
SMILES: CC[C@H](C)[C@H](NC(=O)[C@H](C)NC(=O)CNC(=O)[C@H](Cc1ccccc1)NC(=O)[C@H](CC(N)=O)NC(=O)[C@@H]1CCCN1C(=O)[C@H](CO)NC(=O)[C@H](CO)NC(=O)[C@H](Cc1c[nH]cn1)NC(=O)[C@H](CCCNC(=N)N)NC(=O)[C@H](CC(C)C)NC(=O)[C@H](Cc1ccccc1)NC(=O)[C@H](CC(N)=O)NC(=O)[C@H](C)NC(=O)[C@H](CC(C)C)NC(=O)[C@H](CCCNC(=N)N)NC(=O)[C@H](CCC(N)=O)NC(=O)[C@@H](NC(=O)[C@H](C)NC(=O)[C@@H]1CSSC[C@H](NC(=O)[C@@H](N)CCCCNC(=O)CC[C@H](NC(=O)CCCCCCCCCCCCCCCCCCC(=O)O)C(=O)O)C(=O)N[C@@H](CC(N)=O)C(=O)N[C@@H]([C@@H](C)O)C(=O)N[C@@H](C)C(=O)N[C@@H]([C@@H](C)O)C(=O)N1)[C@@H](C)O)C(=O)N1CCC[C@H]1C(=O)N[C@@H](CO)C(=O)N[C@@H](CO)C(=O)N[C@H](C(=O)N[C@@H](CC(N)=O)C(=O)N[C@H](C(=O)NCC(=O)N[C@@H](Cc1c[nH]cn1)C(=O)N[C@@H](CC(N)=O)C(=O)N[C@H](C(=O)N[C@@H](Cc1ccc(O)cc1)C(N)=O)[C@@H](C)O)C(C)C)[C@@H](C)O
notes: also called compound 77
B2: N^ε1-[(4S)-4-carboxy-4-(19-carboxynonadecanoylamino)butanoyl]-[Arg17,Pro21,Pro27,His35]-h-amylin (peptide)
peptide: K([γGlu-C20 diacid])CNTATCATQRLANFLRHSSPNFGAIPSSTNVGSHTY-NH2
modifications: disulfide 2-7; N-terminus assumed
SMILES: CC[C@H](C)[C@H](NC(=O)[C@H](C)NC(=O)CNC(=O)[C@H](Cc1ccccc1)NC(=O)[C@H](CC(N)=O)NC(=O)[C@@H]1CCCN1C(=O)[C@H](CO)NC(=O)[C@H](CO)NC(=O)[C@H](Cc1c[nH]cn1)NC(=O)[C@H](CCCNC(=N)N)NC(=O)[C@H](CC(C)C)NC(=O)[C@H](Cc1ccccc1)NC(=O)[C@H](CC(N)=O)NC(=O)[C@H](C)NC(=O)[C@H](CC(C)C)NC(=O)[C@H](CCCNC(=N)N)NC(=O)[C@H](CCC(N)=O)NC(=O)[C@@H](NC(=O)[C@H](C)NC(=O)[C@@H]1CSSC[C@H](NC(=O)[C@@H](N)CCCCNC(=O)CC[C@H](NC(=O)CCCCCCCCCCCCCCCCCCC(=O)O)C(=O)O)C(=O)N[C@@H](CC(N)=O)C(=O)N[C@@H]([C@@H](C)O)C(=O)N[C@@H](C)C(=O)N[C@@H]([C@@H](C)O)C(=O)N1)[C@@H](C)O)C(=O)N1CCC[C@H]1C(=O)N[C@@H](CO)C(=O)N[C@@H](CO)C(=O)N[C@H](C(=O)N[C@@H](CC(N)=O)C(=O)N[C@H](C(=O)NCC(=O)N[C@@H](CO)C(=O)N[C@@H](Cc1c[nH]cn1)C(=O)N[C@H](C(=O)N[C@@H](Cc1ccc(O)cc1)C(N)=O)[C@@H](C)O)C(C)C)[C@@H](C)O
notes: also called compound 60
B3: N^ε1-[(4S)-4-carboxy-4-(19-carboxynonadecanoylamino)butanoyl]-[His14,Arg17,Pro21,Pro27,Arg34]-h-amylin (peptide)
peptide: K([γGlu-C20 diacid])CNTATCATQRLAHFLRHSSPNFGAIPSSTNVGRNTY-NH2
modifications: disulfide 2-7; N-terminus assumed
SMILES: CC[C@H](C)[C@H](NC(=O)[C@H](C)NC(=O)CNC(=O)[C@H](Cc1ccccc1)NC(=O)[C@H](CC(N)=O)NC(=O)[C@@H]1CCCN1C(=O)[C@H](CO)NC(=O)[C@H](CO)NC(=O)[C@H](Cc1c[nH]cn1)NC(=O)[C@H](CCCNC(=N)N)NC(=O)[C@H](CC(C)C)NC(=O)[C@H](Cc1ccccc1)NC(=O)[C@H](Cc1c[nH]cn1)NC(=O)[C@H](C)NC(=O)[C@H](CC(C)C)NC(=O)[C@H](CCCNC(=N)N)NC(=O)[C@H](CCC(N)=O)NC(=O)[C@@H](NC(=O)[C@H](C)NC(=O)[C@@H]1CSSC[C@H](NC(=O)[C@@H](N)CCCCNC(=O)CC[C@H](NC(=O)CCCCCCCCCCCCCCCCCCC(=O)O)C(=O)O)C(=O)N[C@@H](CC(N)=O)C(=O)N[C@@H]([C@@H](C)O)C(=O)N[C@@H](C)C(=O)N[C@@H]([C@@H](C)O)C(=O)N1)[C@@H](C)O)C(=O)N1CCC[C@H]1C(=O)N[C@@H](CO)C(=O)N[C@@H](CO)C(=O)N[C@H](C(=O)N[C@@H](CC(N)=O)C(=O)N[C@H](C(=O)NCC(=O)N[C@@H](CCCNC(=N)N)C(=O)N[C@@H](CC(N)=O)C(=O)N[C@H](C(=O)N[C@@H](Cc1ccc(O)cc1)C(N)=O)[C@@H](C)O)C(C)C)[C@@H](C)O
notes: also called compound 85
B4: N^ε1-[(4S)-4-carboxy-4-(19-carboxynonadecanoylamino)butanoyl]-[His14,Arg17,Pro21,Pro27,His34]-h-amylin (peptide)
peptide: K([γGlu-C20 diacid])CNTATCATQRLAHFLRHSSPNFGAIPSSTNVGHNTY-NH2
modifications: disulfide 2-7; N-terminus assumed
SMILES: CC[C@H](C)[C@H](NC(=O)[C@H](C)NC(=O)CNC(=O)[C@H](Cc1ccccc1)NC(=O)[C@H](CC(N)=O)NC(=O)[C@@H]1CCCN1C(=O)[C@H](CO)NC(=O)[C@H](CO)NC(=O)[C@H](Cc1c[nH]cn1)NC(=O)[C@H](CCCNC(=N)N)NC(=O)[C@H](CC(C)C)NC(=O)[C@H](Cc1ccccc1)NC(=O)[C@H](Cc1c[nH]cn1)NC(=O)[C@H](C)NC(=O)[C@H](CC(C)C)NC(=O)[C@H](CCCNC(=N)N)NC(=O)[C@H](CCC(N)=O)NC(=O)[C@@H](NC(=O)[C@H](C)NC(=O)[C@@H]1CSSC[C@H](NC(=O)[C@@H](N)CCCCNC(=O)CC[C@H](NC(=O)CCCCCCCCCCCCCCCCCCC(=O)O)C(=O)O)C(=O)N[C@@H](CC(N)=O)C(=O)N[C@@H]([C@@H](C)O)C(=O)N[C@@H](C)C(=O)N[C@@H]([C@@H](C)O)C(=O)N1)[C@@H](C)O)C(=O)N1CCC[C@H]1C(=O)N[C@@H](CO)C(=O)N[C@@H](CO)C(=O)N[C@H](C(=O)N[C@@H](CC(N)=O)C(=O)N[C@H](C(=O)NCC(=O)N[C@@H](Cc1c[nH]cn1)C(=O)N[C@@H](CC(N)=O)C(=O)N[C@H](C(=O)N[C@@H](Cc1ccc(O)cc1)C(N)=O)[C@@H](C)O)C(C)C)[C@@H](C)O
notes: also called compound 81
B5: N^ε1-[(4S)-4-carboxy-4-(19-carboxynonadecanoylamino)butanoyl]-[His14,Arg17,Pro21,Pro27,His35]-h-amylin (peptide)
peptide: K([γGlu-C20 diacid])CNTATCATQRLAHFLRHSSPNFGAIPSSTNVGSHTY-NH2
modifications: disulfide 2-7; N-terminus assumed
SMILES: CC[C@H](C)[C@H](NC(=O)[C@H](C)NC(=O)CNC(=O)[C@H](Cc1ccccc1)NC(=O)[C@H](CC(N)=O)NC(=O)[C@@H]1CCCN1C(=O)[C@H](CO)NC(=O)[C@H](CO)NC(=O)[C@H](Cc1c[nH]cn1)NC(=O)[C@H](CCCNC(=N)N)NC(=O)[C@H](CC(C)C)NC(=O)[C@H](Cc1ccccc1)NC(=O)[C@H](Cc1c[nH]cn1)NC(=O)[C@H](C)NC(=O)[C@H](CC(C)C)NC(=O)[C@H](CCCNC(=N)N)NC(=O)[C@H](CCC(N)=O)NC(=O)[C@@H](NC(=O)[C@H](C)NC(=O)[C@@H]1CSSC[C@H](NC(=O)[C@@H](N)CCCCNC(=O)CC[C@H](NC(=O)CCCCCCCCCCCCCCCCCCC(=O)O)C(=O)O)C(=O)N[C@@H](CC(N)=O)C(=O)N[C@@H]([C@@H](C)O)C(=O)N[C@@H](C)C(=O)N[C@@H]([C@@H](C)O)C(=O)N1)[C@@H](C)O)C(=O)N1CCC[C@H]1C(=O)N[C@@H](CO)C(=O)N[C@@H](CO)C(=O)N[C@H](C(=O)N[C@@H](CC(N)=O)C(=O)N[C@H](C(=O)NCC(=O)N[C@@H](CO)C(=O)N[C@@H](Cc1c[nH]cn1)C(=O)N[C@H](C(=O)N[C@@H](Cc1ccc(O)cc1)C(N)=O)[C@@H](C)O)C(C)C)[C@@H](C)O
notes: also called compound 66
B6: N^ε1-[(4S)-4-carboxy-4-(19-carboxynonadecanoylamino)butanoyl]-[His14,Arg17,Pro21,Pro27,Pro31]-h-amylin (peptide)
peptide: K([γGlu-C20 diacid])CNTATCATQRLAHFLRHSSPNFGAIPSSTPVGSNTY-NH2
modifications: disulfide 2-7; N-terminus assumed
SMILES: CC[C@H](C)[C@H](NC(=O)[C@H](C)NC(=O)CNC(=O)[C@H](Cc1ccccc1)NC(=O)[C@H](CC(N)=O)NC(=O)[C@@H]1CCCN1C(=O)[C@H](CO)NC(=O)[C@H](CO)NC(=O)[C@H](Cc1c[nH]cn1)NC(=O)[C@H](CCCNC(=N)N)NC(=O)[C@H](CC(C)C)NC(=O)[C@H](Cc1ccccc1)NC(=O)[C@H](Cc1c[nH]cn1)NC(=O)[C@H](C)NC(=O)[C@H](CC(C)C)NC(=O)[C@H](CCCNC(=N)N)NC(=O)[C@H](CCC(N)=O)NC(=O)[C@@H](NC(=O)[C@H](C)NC(=O)[C@@H]1CSSC[C@H](NC(=O)[C@@H](N)CCCCNC(=O)CC[C@H](NC(=O)CCCCCCCCCCCCCCCCCCC(=O)O)C(=O)O)C(=O)N[C@@H](CC(N)=O)C(=O)N[C@@H]([C@@H](C)O)C(=O)N[C@@H](C)C(=O)N[C@@H]([C@@H](C)O)C(=O)N1)[C@@H](C)O)C(=O)N1CCC[C@H]1C(=O)N[C@@H](CO)C(=O)N[C@@H](CO)C(=O)N[C@H](C(=O)N1CCC[C@H]1C(=O)N[C@H](C(=O)NCC(=O)N[C@@H](CO)C(=O)N[C@@H](CC(N)=O)C(=O)N[C@H](C(=O)N[C@@H](Cc1ccc(O)cc1)C(N)=O)[C@@H](C)O)C(C)C)[C@@H](C)O
notes: also called compound 62

What was measured:
[1] = biological target: T1, human amylin receptor (amylin 3(a) receptor: human calcitonin receptor co-expressed with RAMP-3) (human, UniProt P30988 25-474; O60896 24-148, limits assumed); assay: cell-based or functional assay
T1 sequence (looked up) 1: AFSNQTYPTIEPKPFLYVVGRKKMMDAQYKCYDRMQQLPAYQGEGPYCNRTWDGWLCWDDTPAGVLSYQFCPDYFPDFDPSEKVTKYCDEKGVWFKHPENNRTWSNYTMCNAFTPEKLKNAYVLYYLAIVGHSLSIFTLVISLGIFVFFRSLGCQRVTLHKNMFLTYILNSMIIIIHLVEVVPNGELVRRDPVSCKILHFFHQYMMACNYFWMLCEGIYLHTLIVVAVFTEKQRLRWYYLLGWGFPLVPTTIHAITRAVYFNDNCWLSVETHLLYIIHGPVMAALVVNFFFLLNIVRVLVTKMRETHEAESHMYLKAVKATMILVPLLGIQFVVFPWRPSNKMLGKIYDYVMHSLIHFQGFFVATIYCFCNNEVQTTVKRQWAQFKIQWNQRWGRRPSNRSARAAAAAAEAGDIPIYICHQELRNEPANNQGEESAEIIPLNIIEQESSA
T1 sequence (looked up) 2: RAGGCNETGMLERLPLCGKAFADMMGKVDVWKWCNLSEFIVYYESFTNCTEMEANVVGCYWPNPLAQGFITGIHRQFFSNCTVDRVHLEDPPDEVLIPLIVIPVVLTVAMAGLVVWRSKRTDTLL

[2] = biological target: T2, human calcitonin receptor (human, UniProt P30988 25-474); assay: cell-based or functional assay
T2 sequence (looked up): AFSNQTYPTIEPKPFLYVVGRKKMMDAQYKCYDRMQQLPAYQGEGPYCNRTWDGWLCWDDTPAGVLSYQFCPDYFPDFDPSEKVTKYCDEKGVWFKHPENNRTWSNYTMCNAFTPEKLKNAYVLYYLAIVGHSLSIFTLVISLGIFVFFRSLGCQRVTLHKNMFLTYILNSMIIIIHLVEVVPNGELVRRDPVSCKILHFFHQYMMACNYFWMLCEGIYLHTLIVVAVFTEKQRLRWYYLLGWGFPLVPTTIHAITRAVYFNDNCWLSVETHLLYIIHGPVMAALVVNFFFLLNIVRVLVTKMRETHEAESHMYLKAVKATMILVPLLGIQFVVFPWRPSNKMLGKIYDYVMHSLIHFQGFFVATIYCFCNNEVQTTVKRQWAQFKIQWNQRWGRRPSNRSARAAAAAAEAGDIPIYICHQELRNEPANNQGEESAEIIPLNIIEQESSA

Binder | hAmylin-R funct. EC50 [1] | hCTR funct. EC50 [2] | Ratio hCT/hAmylin funct. [1]
B1 | 0.145 nM | 5.4 nM | 
B2 | 0.351 nM | 5.36 nM | 
B3 | 0.146 nM | 3.88 nM | 26.6
B4 | 0.13 nM | 1.73 nM | 
B5 | 0.027 nM | 0.542 nM | 
B6 | 0.044 nM | 0.539 nM | 

Source: patent US20140087995A1 (published 2014)
